Results published in publication PMC9352529.

Legend:
[1] = target: FLAG-tagged EMC3 R31A (human) (human) (UniProt Q9P0I2); experiment: co-IP; HEK293T cells stably expressing α1β2γ2 GABAA receptors, transiently transfected with FLAG-tagged EMC3 variants, or with FLAG-tagged EMC5 and EMC6 variants; lysate (50 mM Tris pH 7.5, 150 mM NaCl, 2 mM DDM) on anti-FLAG M2 magnetic beads overnight at 4°C; blot for α1 and FLAG; band intensity of α1 over FLAG
[2] = target: FLAG-tagged EMC6 N22A (human) (human) (UniProt Q9BV81); experiment: as above
[3] = target: FLAG-tagged EMC6 D27A (human) (human) (UniProt Q9BV81); experiment: as above
[4] = target: FLAG-tagged EMC3 R180A (human) (human) (UniProt Q9P0I2); experiment: as above
[5] = target: human GABAA receptor α1 subunit (HEK293T cells stably expressing α1β2γ2) (human); experiment: co-IP; HEK293T cells stably expressing α1β2γ2 GABAA receptors, treated with non-targeting siRNA or siRNAs against both EMC3 and EMC6 for 48 h; lysate incubated with anti-α1 antibody; blot for SEC61α and α1

For “human GABAA receptor α1 subunit (HEK293T cells stably expressing α1β2γ2) (natural protein)”, the normalized α1 intensity over FLAG after IP, relative to WT EMC3 (relative to WT EMC3) [1] was 0.48, the α1 band intensity over FLAG-tagged EMC6 after IP, relative to WT EMC6 (relative to WT EMC6) [2] was 0.55 and the α1 band intensity over FLAG-tagged EMC6 after IP, relative to WT EMC6 (relative to WT EMC6) [3] was 0.72. It also gave a normalized α1 intensity over FLAG after IP, relative to WT EMC3 (relative to WT EMC3) [4] of 0.4.

Work on “SEC61α (endogenous, HEK293T) (from UniProt P61619 1-476) (natural protein)” yielded a normalized SEC61α over α1 intensity after IP, knock-down of both EMC3 and EMC6 against non-targeting siRNA [5] of 5.3 fold.
